Where “and” joins values, the source holds several entries; their conditions need not be identical. Equal values may be shown once. Read-outs that look alike come from different tables or passages of the source. One block for each substance: values may come before it.
Experiments:
[1] = biological target: S-nitrosylated human GAPDH (hGAPDH treated with S-nitrosocysteine, CysNO) (human); assay: native MS
[2] = biological target: porcine glyceraldehyde-3-phosphate dehydrogenase (pGAPDH), wild type (pig (Sus scrofa)); assay: SEC
[3] = biological target: porcine glyceraldehyde-3-phosphate dehydrogenase (pGAPDH), wild type (pig (Sus scrofa)); assay: SEC; remark: listed apart in the source
[4] = biological target: porcine glyceraldehyde-3-phosphate dehydrogenase (pGAPDH), wild type (pig (Sus scrofa)); assay: SEC; remark: listed apart in the source
[5] = biological target: porcine glyceraldehyde-3-phosphate dehydrogenase (pGAPDH), wild type (pig (Sus scrofa)); assay: SEC; remark: listed apart in the source
[6] = biological target: porcine glyceraldehyde-3-phosphate dehydrogenase (pGAPDH), wild type (pig (Sus scrofa)); assay: SEC; remark: listed apart in the source
[7] = biological target: porcine glyceraldehyde-3-phosphate dehydrogenase (pGAPDH), wild type (pig (Sus scrofa)); assay: SEC; remark: listed apart in the source
[8] = biological target: human glyceraldehyde-3-phosphate dehydrogenase (hGAPDH), wild type (human); assay: SEC
[9] = biological target: human glyceraldehyde-3-phosphate dehydrogenase (hGAPDH), wild type (human); assay: native MS
[10] = biological target: human glyceraldehyde-3-phosphate dehydrogenase (hGAPDH), wild type (human); assay: native MS; remark: listed apart in the source
[11] = biological target: human glyceraldehyde-3-phosphate dehydrogenase (hGAPDH), wild type (human); assay: SEC; remark: listed apart in the source

- stoichiometry N [1]: 4
Substance: S-nitrosylated human GAPDH (hGAPDH treated with S-nitrosocysteine, CysNO) (enzyme)

- stoichiometry N [2]: 4
- stoichiometry N [3]: 4
- stoichiometry N [4]: 4 and 2
- stoichiometry N [5]: 4
- stoichiometry N [6]: 4
- stoichiometry N [7]: 2
Substance: porcine glyceraldehyde-3-phosphate dehydrogenase (pGAPDH), wild type (enzyme)

- stoichiometry N [8]: 4
- stoichiometry N [9]: 4
- stoichiometry N [10]: 4
- stoichiometry N [11]: 4
Substance: human glyceraldehyde-3-phosphate dehydrogenase (hGAPDH), wild type (enzyme)
